Data on two molecules can be found in PMC5916273, “Structure of a VirD4 coupling protein bound to a VirB type IV secretion machinery” (The EMBO Journal, 2017).

In series [1] the target is T4SS_(3-10) complex of plasmid R388 (TrwM/VirB3 to TrwE/VirB10) (conjugative plasmid R388). Description: cysteine labelling with Alexa Fluor 633 C5 maleimide and fluorescence of SDS-PAGE bands; co-purified T4SS3-10+D4 complex denatured in 1% SDS, reduced with TCEP, labelled; band of TrwE (14 copies) as reference; three independent preparations.
Series [2] deals with the molecule itself. Description: negative stain electron microscopy structure; co-purified T4SS3-10+D4 complex from the ΔtrwD/virB11 construct, cross-linked with 0.1% glutaraldehyde on a 10-30% sucrose gradient (GraFix); 2% uranyl acetate; reconstruction of the inner membrane complex, C2 symmetry, 28 Å.

In the case of “TrwB/VirD4 coupling protein of plasmid R388, N-terminally His-tagged (from UniProt Q04230 1-507) (natural protein)”, the stoichiometry N (TrwB subunits per complex) in series [1] is 4.5.

B1: TrwB/VirD4 coupling protein of plasmid R388, N-terminally His-tagged (natural protein, conjugative plasmid R388, UniProt Q04230 1-507, looked up)
chain: MHPDDQRKVSAGIVIVLPLIFWITAVQKTEVLGSPKLLALWELMKLTPQKPILLLSALGGLAVGVLFVWLLNSVGQGEFGGAPFKRFLRGTRIVSGGKLKRMTREKAKQVTVAGVPMPRDAEPRHLLVNGATGTGKSVLLRELAYTGLLRGDRMVIVDPNGDMLSKFGRDKDIILNPYDQRTKGWSFFNEIRNDYDWQRYALSVVPRGKTDEAEEWASYGRLLLRETAKKLALIGTPSMRELFHWTTIATFDDLRGFLEGTLAESLFAGSNEASKALTSARFVLSDKLPEHVTMPDGDFSIRSWLEDPNGGNLFITWREDMGPALRPLISAWVDVVCTSILSLPEEPKRRLWLFIDELASLEKLASLADALTKGRKAGLRVVAGLQSTSQLDDVYGVKEAQTLRASFRSLVVLGGSRTDPKTNEDMSLSLGEHEVERDRYSKNTGKHHSTGRALERVRERVVMPAEIANLPDLTAYVGFAGNRPIAKVPLEIKQFANRQPAFVEGTI
notes: TrwB (VirD4 homologue), coupling protein encoded by the conjugative plasmid R388; whole gene cloned after trwD/virB11; theoretical molecular weight with 10 additional histidines 57 kDa; Inner membrane protein; also called His trwB_(/virD4); source: detergent-solubilised membranes; co-purified (Strep column, HisTrap); not shown: His10, N-terminal, kept
As to B1, the “stoichiometry N” value in series [2] was 2 TrwB molecules in each region of density.
